B1: SEQ ID NO: 107 (peptide)
peptide: cyclo([Phe(4-(cis-4-COOH-cHex))][Ala(1-bicyclo(1.1.1)pentyl)][Phe(4-COOH)]G[Pro(cis-4-F)][Trp(βS-Me,4-F)][αMeS]EW[Aib]SQ[Dab]G[dPro(4R-Bzl(4-F))])
SMILES: C[C@@H](c1c[nH]c2cccc(F)c12)[C@@H]1NC(=O)[C@@H]2C[C@H](F)CN2C(=O)CNC(=O)[C@H](Cc2ccc(C(=O)O)cc2)NC(=O)[C@H](CC23CC(C2)C3)NC(=O)[C@H](Cc2ccc([C@H]3CC[C@@H](C(=O)O)CC3)cc2)NC(=O)[C@H]2C[C@@H](Cc3ccc(F)cc3)CN2C(=O)CNC(=O)[C@H](CCN)NC(=O)[C@H](CCC(N)=O)NC(=O)[C@H](CO)NC(=O)C(C)(C)NC(=O)[C@H](Cc2c[nH]c3ccccc23)NC(=O)[C@H](CCC(=O)O)NC(=O)[C@](C)(CO)NC1=O
B2: SEQ ID NO: 103 (peptide)
peptide: cyclo([Phe(4-(cis-4-COOH-cHex))][Ala(1-bicyclo(1.1.1)pentyl)][Phe(4-COOH)]G[Pro(cis-4-F)][Trp(βS-Me,4-F)][αMeS]EW[Aib][Ala(pyrimidin-5-yl)]Q[Dab]G[dPro(4R-Bzl(4-F))])
SMILES: C[C@@H](c1c[nH]c2cccc(F)c12)[C@@H]1NC(=O)[C@@H]2C[C@H](F)CN2C(=O)CNC(=O)[C@H](Cc2ccc(C(=O)O)cc2)NC(=O)[C@H](CC23CC(C2)C3)NC(=O)[C@H](Cc2ccc([C@H]3CC[C@@H](C(=O)O)CC3)cc2)NC(=O)[C@H]2C[C@@H](Cc3ccc(F)cc3)CN2C(=O)CNC(=O)[C@H](CCN)NC(=O)[C@H](CCC(N)=O)NC(=O)[C@H](Cc2cncnc2)NC(=O)C(C)(C)NC(=O)[C@H](Cc2c[nH]c3ccccc23)NC(=O)[C@H](CCC(=O)O)NC(=O)[C@](C)(CO)NC1=O
B3: SEQ ID NO: 105 (peptide)
peptide: cyclo([Phe(4-(cis-4-COOH-cHex))][Ala(1-bicyclo(1.1.1)pentyl)][Phe(4-COOH)]G[Pro(cis-4-F)][Trp(βS-Me,4-F)][Aib]EW[Api]SQ[Dab]G[dPro(4R-Bzl(4-F))])
SMILES: C[C@@H](c1c[nH]c2cccc(F)c12)[C@@H]1NC(=O)[C@@H]2C[C@H](F)CN2C(=O)CNC(=O)[C@H](Cc2ccc(C(=O)O)cc2)NC(=O)[C@H](CC23CC(C2)C3)NC(=O)[C@H](Cc2ccc([C@H]3CC[C@@H](C(=O)O)CC3)cc2)NC(=O)[C@H]2C[C@@H](Cc3ccc(F)cc3)CN2C(=O)CNC(=O)[C@H](CCN)NC(=O)[C@H](CCC(N)=O)NC(=O)[C@H](CO)NC(=O)C2(CCNCC2)NC(=O)[C@H](Cc2c[nH]c3ccccc23)NC(=O)[C@H](CCC(=O)O)NC(=O)C(C)(C)NC1=O
B4: SEQ ID NO: 110 (peptide)
peptide: cyclo([Bip(4'-COOH)][Ala(1-bicyclo(1.1.1)pentyl)][Phe(4-COOH)]G[Pro(cis-4-F)][Trp(βS-Me,4-F)][Aib]SW[Aib][Orn]Q[Dab]G[dPro(4R-Bzl(4-F))])
SMILES: C[C@@H](c1c[nH]c2cccc(F)c12)[C@@H]1NC(=O)[C@@H]2C[C@H](F)CN2C(=O)CNC(=O)[C@H](Cc2ccc(C(=O)O)cc2)NC(=O)[C@H](CC23CC(C2)C3)NC(=O)[C@H](Cc2ccc(-c3ccc(C(=O)O)cc3)cc2)NC(=O)[C@H]2C[C@@H](Cc3ccc(F)cc3)CN2C(=O)CNC(=O)[C@H](CCN)NC(=O)[C@H](CCC(N)=O)NC(=O)[C@H](CCCN)NC(=O)C(C)(C)NC(=O)[C@H](Cc2c[nH]c3ccccc23)NC(=O)[C@H](CO)NC(=O)C(C)(C)NC1=O
B5: SEQ ID NO: 108 (peptide)
peptide: cyclo([Bip(4'-COOH)][4Pal][Phe(4-COOH)]G[Pro(cis-4-F)][Trp(βS-Me,4-F)][Aib]SW[Aib][Ala(pyrimidin-5-yl)]Q[Orn]G[dPro(4R-(4-pyridylmethyl))])
SMILES: C[C@@H](c1c[nH]c2cccc(F)c12)[C@@H]1NC(=O)[C@@H]2C[C@H](F)CN2C(=O)CNC(=O)[C@H](Cc2ccc(C(=O)O)cc2)NC(=O)[C@H](Cc2ccncc2)NC(=O)[C@H](Cc2ccc(-c3ccc(C(=O)O)cc3)cc2)NC(=O)[C@H]2C[C@@H](Cc3ccncc3)CN2C(=O)CNC(=O)[C@H](CCCN)NC(=O)[C@H](CCC(N)=O)NC(=O)[C@H](Cc2cncnc2)NC(=O)C(C)(C)NC(=O)[C@H](Cc2c[nH]c3ccccc23)NC(=O)[C@H](CO)NC(=O)C(C)(C)NC1=O
B6: SEQ ID NO: 104 (peptide)
peptide: cyclo([Phe(4-(cis-4-COOH-cHex))][Ala(1-bicyclo(1.1.1)pentyl)][Phe(4-COOH)]G[Pro(cis-4-F)][Trp(βS-Me,4-F)][αMeS]EW[αMeK][Ala(pyrimidin-5-yl)]Q[Dab]G[dPro(4R-Bzl(4-F))])
SMILES: C[C@@H](c1c[nH]c2cccc(F)c12)[C@@H]1NC(=O)[C@@H]2C[C@H](F)CN2C(=O)CNC(=O)[C@H](Cc2ccc(C(=O)O)cc2)NC(=O)[C@H](CC23CC(C2)C3)NC(=O)[C@H](Cc2ccc([C@H]3CC[C@@H](C(=O)O)CC3)cc2)NC(=O)[C@H]2C[C@@H](Cc3ccc(F)cc3)CN2C(=O)CNC(=O)[C@H](CCN)NC(=O)[C@H](CCC(N)=O)NC(=O)[C@H](Cc2cncnc2)NC(=O)[C@](C)(CCCCN)NC(=O)[C@H](Cc2c[nH]c3ccccc23)NC(=O)[C@H](CCC(=O)O)NC(=O)[C@](C)(CO)NC1=O
B7: SEQ ID NO: 106 (peptide)
peptide: cyclo([Phe(4-(cis-4-COOH-cHex))][Ala(1-bicyclo(1.1.1)pentyl)][Phe(4-COOH)]G[Pro(cis-4-F)][Trp(βS-Me,4-F)][Aib]SW[Aib]SQ[Dab]G[dPro(4R-Bzl(4-F))])
SMILES: C[C@@H](c1c[nH]c2cccc(F)c12)[C@@H]1NC(=O)[C@@H]2C[C@H](F)CN2C(=O)CNC(=O)[C@H](Cc2ccc(C(=O)O)cc2)NC(=O)[C@H](CC23CC(C2)C3)NC(=O)[C@H](Cc2ccc([C@H]3CC[C@@H](C(=O)O)CC3)cc2)NC(=O)[C@H]2C[C@@H](Cc3ccc(F)cc3)CN2C(=O)CNC(=O)[C@H](CCN)NC(=O)[C@H](CCC(N)=O)NC(=O)[C@H](CO)NC(=O)C(C)(C)NC(=O)[C@H](Cc2c[nH]c3ccccc23)NC(=O)[C@H](CO)NC(=O)C(C)(C)NC1=O
B8: SEQ ID NO: 102 (peptide)
peptide: cyclo([Bip(4'-COOH)][4Pal][Phe(4-COOH)]G[Pro(cis-4-F)][Trp(βS-Me,4-F)][Aib]EW[Aib][3PyridaAla]Q[Dab]G[dPro(4R-Bzl(4-F))])
SMILES: C[C@@H](c1c[nH]c2cccc(F)c12)[C@@H]1NC(=O)[C@@H]2C[C@H](F)CN2C(=O)CNC(=O)[C@H](Cc2ccc(C(=O)O)cc2)NC(=O)[C@H](Cc2ccncc2)NC(=O)[C@H](Cc2ccc(-c3ccc(C(=O)O)cc3)cc2)NC(=O)[C@H]2C[C@@H](Cc3ccc(F)cc3)CN2C(=O)CNC(=O)[C@H](CCN)NC(=O)[C@H](CCC(N)=O)NC(=O)[C@H](Cc2cccnn2)NC(=O)C(C)(C)NC(=O)[C@H](Cc2c[nH]c3ccccc23)NC(=O)[C@H](CCC(=O)O)NC(=O)C(C)(C)NC1=O
B9: SEQ ID NO: 109 (peptide)
peptide: cyclo([Bip(4'-COOH)][Ala(1-bicyclo(1.1.1)pentyl)][Phe(4-COOH)]G[Pro(cis-4-F)][Trp(βS-Me,4-F)][Aib]SW[Aib][Ala(pyrimidin-5-yl)]Q[Orn]G[dPro(4R-(4-pyridylmethyl))])
SMILES: C[C@@H](c1c[nH]c2cccc(F)c12)[C@@H]1NC(=O)[C@@H]2C[C@H](F)CN2C(=O)CNC(=O)[C@H](Cc2ccc(C(=O)O)cc2)NC(=O)[C@H](CC23CC(C2)C3)NC(=O)[C@H](Cc2ccc(-c3ccc(C(=O)O)cc3)cc2)NC(=O)[C@H]2C[C@@H](Cc3ccncc3)CN2C(=O)CNC(=O)[C@H](CCCN)NC(=O)[C@H](CCC(N)=O)NC(=O)[C@H](Cc2cncnc2)NC(=O)C(C)(C)NC(=O)[C@H](Cc2c[nH]c3ccccc23)NC(=O)[C@H](CO)NC(=O)C(C)(C)NC1=O
B10: SEQ ID NO: 111 (peptide)
peptide: cyclo([Bip(4'-COOH)][4Pal][Phe(4-COOH)]G[Pro(cis-4-F)][Trp(βS-Me,4-F)][Aib]SW[d(αMeS)][Ala(pyrimidin-5-yl)]Q[Dab]G[dPro(4R-(4-pyridylmethyl))])
SMILES: C[C@@H](c1c[nH]c2cccc(F)c12)[C@@H]1NC(=O)[C@@H]2C[C@H](F)CN2C(=O)CNC(=O)[C@H](Cc2ccc(C(=O)O)cc2)NC(=O)[C@H](Cc2ccncc2)NC(=O)[C@H](Cc2ccc(-c3ccc(C(=O)O)cc3)cc2)NC(=O)[C@H]2C[C@@H](Cc3ccncc3)CN2C(=O)CNC(=O)[C@H](CCN)NC(=O)[C@H](CCC(N)=O)NC(=O)[C@H](Cc2cncnc2)NC(=O)[C@@](C)(CO)NC(=O)[C@H](Cc2c[nH]c3ccccc23)NC(=O)[C@H](CO)NC(=O)C(C)(C)NC1=O
B11: SEQ ID NO: 11 (peptide)
peptide: cyclo([TyrEtNAc][4Pal][Phe(4-COOH)]G[Pro(cis-4-F)][Trp(βS-Me,4-F)][Aib]EW[Aib][Ala(pyrimidin-5-yl)]Q[Dap]G[dPro(4R-Bzl(4-F))])
SMILES: CC(=O)NCCOc1ccc(C[C@@H]2NC(=O)[C@H]3C[C@@H](Cc4ccc(F)cc4)CN3C(=O)CNC(=O)[C@H](CN)NC(=O)[C@H](CCC(N)=O)NC(=O)[C@H](Cc3cncnc3)NC(=O)C(C)(C)NC(=O)[C@H](Cc3c[nH]c4ccccc34)NC(=O)[C@H](CCC(=O)O)NC(=O)C(C)(C)NC(=O)[C@H]([C@@H](C)c3c[nH]c4cccc(F)c34)NC(=O)[C@@H]3C[C@H](F)CN3C(=O)CNC(=O)[C@H](Cc3ccc(C(=O)O)cc3)NC(=O)[C@H](Cc3ccncc3)NC2=O)cc1

Starred links: 1 amine or outer side, 2 acyl side, 3 side chain; linkers in the order of their positions; H or OH if unused. Non-standard residues stand in square brackets, D forms with d. TyrEtNAc = (2S)-3-[4-(2-acetamidoethoxy)phenyl]-2-amino-propanoic acid, CC(=O)NCCOc1ccc(C[C@H](N[*:1])C(=O)[*:2])cc1; 3PyridaAla = (2S)-2-amino-3-pyridazin-3-yl-propanoic acid, O=C([C@H](Cc1cccnn1)N[*:1])[*:2]; Phe(4-(cis-4-COOH-cHex)) = N[C@@H](Cc1ccc([C@H]2CC[C@@H](C(=O)O)CC2)cc1)C(=O)O; dPro(4R-(4-pyridylmethyl)) = O=C(O)[C@H]1C[C@@H](Cc2ccncc2)CN1; Trp(βS-Me,4-F) = C[C@@H](c1c[nH]c2cccc(F)c12)[C@H](N)C(=O)O; Bip(4'-COOH) = N[C@@H](Cc1ccc(-c2ccc(C(=O)O)cc2)cc1)C(=O)O; Ala(1-bicyclo(1.1.1)pentyl) = N[C@@H](CC12CC(C1)C2)C(=O)O; dPro(4R-Bzl(4-F)) = O=C(O)[C@H]1C[C@@H](Cc2ccc(F)cc2)CN1; Ala(pyrimidin-5-yl) = N[C@@H](Cc1cncnc1)C(=O)O; Phe(4-COOH) = N[C@@H](Cc1ccc(C(=O)O)cc1)C(=O)O; Pro(cis-4-F) = O=C(O)[C@@H]1C[C@H](F)CN1; 4Pal = N[C@@H](Cc1ccncc1)C(=O)O; d(αMeS) = C[C@@](N)(CO)C(=O)O; αMeK = C[C@](N)(CCCCN)C(=O)O; αMeS = C[C@](N)(CO)C(=O)O; Orn = NCCC[C@H](N)C(=O)O; Api = NC1(C(=O)O)CCNCC1; Dab = NCC[C@H](N)C(=O)O; Dap = NC[C@H](N)C(=O)O; Aib = CC(C)(N)C(=O)O

The target of the assay is Recombinant human IL-1β (BioLegend 579404) (human, UniProt P01584 117-269). Nature of the assay: cell-based or functional assay.
As to B1, the “MRC5 IC50” value amounted to 0.063 nM.
The value for B2 was 0.06 nM; that for B3 was 0.083 nM.
Turning to B4, the “MRC5 IC50” value amounted to 0.038 nM.
With B5 the figure was 0.024 nM; with B6, 0.085 nM; with B7, 0.031 nM.
The value for B8 was 0.021 nM; that for B9 was 0.036 nM; that for B10 was 0.019 nM.
The value for B11 was 0.045 nM.
